One block for each molecule: values may come before it.
How the values were obtained:
[1] = molecular target: GPR158 (residues 1–863) (human) (UniProt Q5T848); assay: cryo-EM structure; GPR158 (1-863), RGS7-Flag and Gβ5 co-expressed, co-purified by anti-Flag resin and Superose 6 in LMNG/CHS, treated with 0.1% OG; 2:1:1 and 2:2:2 complexes sorted from one sample
[2] = molecular target: apo GPR158 (human) (UniProt Q5T848); assay: cryo-EM structure; apo GPR158 in 20 mM HEPES pH 7.5, 200 mM NaCl, 0.01% LMNG, 0.001% CHS, 5 mM EDTA, with 0.1% OG added; 12.7 mg/ml
[3] = molecular target: the molecule itself; assay: cryo-EM structure; GPR158 (1-863), RGS7-Flag and Gβ5 co-expressed, co-purified by anti-Flag resin and Superose 6 in LMNG/CHS, treated with 0.1% OG; 2:1:1 and 2:2:2 complexes sorted from one sample

- stoichiometry N (RGS7–Gβ5 heterodimer per GPR158 dimer) [1]: 1
- stoichiometry N (RGS7–Gβ5 heterodimers per GPR158 dimer) [1]: 2
Molecule: RGS7–Gβ5 heterodimer (from UniProt P49802 1-495; O14775 1-395) (complex)

- stoichiometry N [2]: 2 protomers
Molecule: apo GPR158 (from UniProt Q5T848 24-710) (receptor)

B1: GPR158 (residues 1–863) (receptor, human, UniProt Q5T848 24-863, looked up)
chain: ASRDPQGRPDSPRERTPKGKPHAQQPGRASASDSSAPWSRSTDGTILAQKLAEEVPMDVASYLYTGDSHQLKRANCSGRYELAGLPGKWPALASAHPSLHRALDTLTHATNFLNVMLQSNKSREQNLQDDLDWYQALVWSLLEGEPSISRAAITFSTDSLSAPAPQVFLQATREESRILLQDLSSSAPHLANATLETEWFHGLRRKWRPHLHRRGPNQGPRGLGHSWRRKDGLGGDKSHFKWSPPYLECENGSYKPGWLVTLSSAIYGLQPNLVPEFRGVMKVDINLQKVDIDQCSSDGWFSGTHKCHLNNSECMPIKGLGFVLGAYECICKAGFYHPGVLPVNNFRRRGPDQHISGSTKDVSEEAYVCLPCREGCPFCADDSPCFVQEDKYLRLAIISFQALCMLLDFVSMLVVYHFRKAKSIRASGLILLETILFGSLLLYFPVVILYFEPSTFRCILLRWARLLGFATVYGTVTLKLHRVLKVFLSRTAQRIPYMTGGRVMRMLAVILLVVFWFLIGWTSSVCQNLEKQISLIGQGKTSDHLIFNMCLIDRWDYMTAVAEFLFLLWGVYLCYAVRTVPSAFHEPRYMAVAVHNELIISAIFHTIRFVLASRLQSDWMLMLYFAHTHLTVTVTIGLLLIPKFSHSSNNPRDDIATEAYEDELDMGRSGSYLNSSINSAWSEHSLDPEDIRDELKKLYAQLEIYKRKKMITNNPHLQKKRCSKKGLGRSIMRRITEIPETVSRQCSKEDKEGADHGTAKGTALIRKNPPESSGNTGKSKEETLKNRVFSLKKSHSTYDHVRDQTEESSSLPTESQEEETTENSTLESLSGKKLTQKLKE
notes: signal peptide in the construct; human GPR158 residues 1-863, followed by a PreScission protease site, GFP and a Twin-Strep II tag; No PreScission cleavage is told for the purification of the complex
- stoichiometry N [3]: 2 protomers

— paper PMC8611064, “Structure of the class C orphan GPCR GPR158 in complex with RGS7-Gβ5” (Nature Communications, 2021)
